Results published in the supplement of paper PMC7877785.
± gives the uncertainty stated by the source.

Assay: self-splicing fitness, log relative to wild type (ln ratio); higher = more splicing; Tetrahymena group I intron in knt gene, E. coli kanamycin selection, DiMSum; sequences stand for … in CUCUCU…GGAGGGAAAAGUUAUCAGGCAUGCACCUGGUAGCUAGUCUUUAAACCAAUAGAUUGCAUCGGUUUAAAAGGCAAGACCGUCAAAUUGCGGGAAAGGGGUCAACAGCCGUUCAGUACCAAGUCUCAGGGGAAACUUUGAGAUGGCCUUGCAAAGGGUAUGGUAAUAAGCUGACGGACAUGGUCCUAACCACGCAGCCAAGUCCUAAGUCAACAGAUCUUCUGUUGAUAUGGAUGCAGUUCACAGACUAAAUGUCGGUCGGGGAAGAUGUAUUCUUCUCAUAAGAUAUAGUCGGACCUCUCCUUAAUGGGAGCUAGCGGAUGAAGUGAUGCAACACUGGAGCCGCUGGGAACUAAUUUGUAUGCGAAAGUAUAUUGAUUAGUUUUGGAGUACUCGUGGUCG
Procedure, shortened: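 Library with all eight P1ex-region intron nucleotides randomised, intron inside the knt kanamycin-resistance gene on pET-22b(+), in E. coli BL21(DE3). Cells grew overnight at 37°C or 30°C on LB agar with or without 25 μg/mL kanamycin (plus 100 μg/mL carbenicillin, 50 μM IPTG, 0.2% rhamnose), in six replicate transformations. Pooled colonies were amplicon-sequenced on Illumina HiSeq 2500. DiMSum fitness is the error-weighted combination of wild-type-normalised replicate fold changes, kanamycin versus none.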

Sequence	self-splicing fitness (ln) (30 °C)	self-splicing fitness (ln) (37 °C)
GGUCAGCAAUAUUACGGUGA	-0.695 ± 0.074	-1 ± 0.11
GGUCAGCAAUAUUACGUCAC	–	-1.77 ± 0.39
GGUCAGCAAUAUUACGUCCU	-2.63 ± 0.31	-1.85 ± 0.29
GGUCAGCAAUAUUACGUGGU	-2.54 ± 0.18	-2.17 ± 0.23
GGUCAGCAAUAUUACGUUUU	-0.899 ± 0.073	-0.202 ± 0.078
GGUGAGCAAUAUUACGAAAU	-2.21 ± 0.31	-2.78 ± 0.38
GGUGAGCAAUAUUACGAAUC	–	-2.04 ± 0.4
GGUGAGCAAUAUUACGACUC	-1.13 ± 0.15	-0.634 ± 0.22
GGUGAGCAAUAUUACGAGGC	–	-0.336 ± 0.33
GGUGAGCAAUAUUACGAGUU	-2.39 ± 0.27	-0.657 ± 0.16
GGUGAGCAAUAUUACGAUCU	-0.331 ± 0.18	-0.809 ± 0.27
GGUGAGCAAUAUUACGCAAG	–	0.418 ± 0.23
GGUGAGCAAUAUUACGCAGA	-2.51 ± 0.31	-2.52 ± 0.33
GGUGAGCAAUAUUACGCUUC	–	-2.51 ± 0.39
GGUGAGCAAUAUUACGGGCU	-2.81 ± 0.19	-2.67 ± 0.44
GGUGAGCAAUAUUACGGGGC	–	-1.01 ± 0.32
GGUGAGCAAUAUUACGUACG	-0.28 ± 0.23	-0.434 ± 0.25
GGUGAGCAAUAUUACGUAUA	-3.76 ± 0.29	-3.25 ± 0.37
GGUGAGCAAUAUUACGUCCA	-2.91 ± 0.24	-2.07 ± 0.096
GGUGAGCAAUAUUACGUGAG	-2.73 ± 0.19	-1.76 ± 0.21
GGUGAGCAAUAUUACGUGCA	-0.986 ± 0.12	-0.496 ± 0.14
GGUGAGCAAUAUUACGUGUC	-3.03 ± 0.26	-1.99 ± 0.32
GGUGAGCAAUAUUACGUUAC	-3.12 ± 0.47	-0.718 ± 0.24
GGUUAGCAAUAUUACGACGA	-1.15 ± 0.18	0.349 ± 0.21
GGUUAGCAAUAUUACGAGCU	-2.61 ± 0.29	-1.69 ± 0.32

Sequence	self-splicing fitness (ln) (30 °C)	self-splicing fitness (ln) (37 °C)
GGUUAGCAAUAUUACGAUAC	-0.314 ± 0.22	-0.0363 ± 0.19
GGUUAGCAAUAUUACGAUAU	-0.423 ± 0.1	-0.137 ± 0.13
GGUUAGCAAUAUUACGCAUA	-0.622 ± 0.12	-0.182 ± 0.14
GGUUAGCAAUAUUACGCCAA	-1.42 ± 0.34	-2.43 ± 0.33
GGUUAGCAAUAUUACGCGGA	-1.4 ± 0.31	-1.34 ± 0.23
GGUUAGCAAUAUUACGGAAU	-2.21 ± 0.25	-1.01 ± 0.25
GGUUAGCAAUAUUACGGGCC	-2.52 ± 0.27	-1.47 ± 0.29
GGUUAGCAAUAUUACGGGGA	-2.05 ± 0.25	-2.49 ± 0.29
GGUUAGCAAUAUUACGGUCU	-0.263 ± 0.12	0.162 ± 0.15
GGUUAGCAAUAUUACGGUGA	-1.49 ± 0.13	-0.0195 ± 0.13
GGUUAGCAAUAUUACGGUUC	-0.571 ± 0.086	-0.114 ± 0.11
GGUUAGCAAUAUUACGUACG	-0.392 ± 0.14	0.0535 ± 0.18
GGUUAGCAAUAUUACGUAUG	-3.18 ± 0.17	-0.52 ± 0.15
GGUUAGCAAUAUUACGUCCU	-1.2 ± 0.12	-0.367 ± 0.12
GGUUAGCAAUAUUACGUUUC	-3.04 ± 0.21	-0.645 ± 0.18
GUAAAGCAAUAUUACGACUU	0.245 ± 0.1	0.464 ± 0.12
GUAAAGCAAUAUUACGAGUA	-1.11 ± 0.12	-0.624 ± 0.14
GUAAAGCAAUAUUACGCAUA	-1.1 ± 0.098	-0.728 ± 0.11
GUAAAGCAAUAUUACGCCCU	0.35 ± 0.081	0.185 ± 0.081
GUAAAGCAAUAUUACGCUAC	-4.2 ± 0.32	-1.87 ± 0.37
GUAAAGCAAUAUUACGCUUG	-2.17 ± 0.15	-1.12 ± 0.17
GUAAAGCAAUAUUACGGACC	-1.15 ± 0.13	-0.652 ± 0.24
GUAAAGCAAUAUUACGGAGC	-2.47 ± 0.2	-1.71 ± 0.21
GUAAAGCAAUAUUACGGAUA	-2.72 ± 0.16	-0.67 ± 0.12
GUAAAGCAAUAUUACGGCGA	-0.00421 ± 0.11	-0.231 ± 0.17

Sequence	self-splicing fitness (ln) (30 °C)	self-splicing fitness (ln) (37 °C)
GUAAAGCAAUAUUACGGGGU	-3.02 ± 0.19	-2.25 ± 0.21
GUAAAGCAAUAUUACGGUAC	-1.61 ± 0.12	-1.26 ± 0.18
GUAAAGCAAUAUUACGGUAG	-0.977 ± 0.054	-1.37 ± 0.099
GUAAAGCAAUAUUACGUCAC	-2.16 ± 0.096	-1.56 ± 0.12
GUAAAGCAAUAUUACGUCCA	-0.574 ± 0.088	0.0855 ± 0.12
GUAAAGCAAUAUUACGUGGG	-3.28 ± 0.18	-2.91 ± 0.14
GUAAAGCAAUAUUACGUGUG	-1.34 ± 0.063	-1 ± 0.088
GUACAGCAAUAUUACGAAGA	-2.52 ± 0.32	-1.83 ± 0.28
GUACAGCAAUAUUACGAAUG	-3.54 ± 0.25	-0.988 ± 0.18
GUACAGCAAUAUUACGACGC	-0.428 ± 0.092	-0.206 ± 0.1
GUACAGCAAUAUUACGAGAC	-2.09 ± 0.24	-2.5 ± 0.28
GUACAGCAAUAUUACGAGGG	-3.21 ± 0.17	-2.42 ± 0.2
GUACAGCAAUAUUACGAUCG	-1.67 ± 0.12	-0.932 ± 0.16
GUACAGCAAUAUUACGCACU	-0.597 ± 0.13	-1.16 ± 0.24
GUACAGCAAUAUUACGCAGG	-3.44 ± 0.23	-1.93 ± 0.19
GUACAGCAAUAUUACGCAUA	-2.65 ± 0.15	-1.56 ± 0.11
GUACAGCAAUAUUACGCCCU	-1.64 ± 0.34	-0.525 ± 0.32
GUACAGCAAUAUUACGCUCA	-1.07 ± 0.091	-0.188 ± 0.11
GUACAGCAAUAUUACGGCUA	0.707 ± 0.15	0.282 ± 0.12
GUACAGCAAUAUUACGGGGA	-3.21 ± 0.25	-2.33 ± 0.19
GUACAGCAAUAUUACGGGUA	-2.08 ± 0.13	-1.93 ± 0.15
GUACAGCAAUAUUACGGUGA	-1.75 ± 0.14	-0.943 ± 0.12
GUACAGCAAUAUUACGGUGG	-2.22 ± 0.1	-1.63 ± 0.11
GUACAGCAAUAUUACGUACG	-4.18 ± 0.31	-2.2 ± 0.19
GUACAGCAAUAUUACGUAUG	-2.52 ± 0.086	-1.45 ± 0.091

Sequence	self-splicing fitness (ln) (30 °C)	self-splicing fitness (ln) (37 °C)
GUACAGCAAUAUUACGUGAC	-2.8 ± 0.18	-0.577 ± 0.16
GUACAGCAAUAUUACGUGAU	-2.88 ± 0.07	-0.556 ± 0.07
GUACAGCAAUAUUACGUUAA	-2.28 ± 0.12	-1.98 ± 0.15
GUACAGCAAUAUUACGUUGU	-3.27 ± 0.15	-1.99 ± 0.15
GUAGAGCAAUAUUACGACCC	0.536 ± 0.15	0.745 ± 0.18
GUAGAGCAAUAUUACGAGAC	-3.02 ± 0.42	–
GUAGAGCAAUAUUACGAGAU	-4.13 ± 0.23	-0.661 ± 0.16
GUAGAGCAAUAUUACGAUCA	-1.28 ± 0.23	-0.907 ± 0.24
GUAGAGCAAUAUUACGAUUC	-0.192 ± 0.1	0.716 ± 0.14
GUAGAGCAAUAUUACGAUUG	-2.82 ± 0.16	-2.4 ± 0.2
GUAGAGCAAUAUUACGCCUA	-1.39 ± 0.26	-1.18 ± 0.24
GUAGAGCAAUAUUACGCUGA	-2.33 ± 0.11	-1.15 ± 0.14
GUAGAGCAAUAUUACGGAAU	-2.36 ± 0.084	-1.18 ± 0.096
GUAGAGCAAUAUUACGGCCA	-0.643 ± 0.098	-0.417 ± 0.17
GUAGAGCAAUAUUACGGCUU	-0.97 ± 0.075	-0.03 ± 0.12
GUAGAGCAAUAUUACGGGAG	-3.15 ± 0.47	-1.85 ± 0.38
GUAGAGCAAUAUUACGGGGA	-3.54 ± 0.25	-1.16 ± 0.29
GUAGAGCAAUAUUACGGGUC	-2.19 ± 0.12	-1.37 ± 0.12
GUAGAGCAAUAUUACGUAUC	-2.44 ± 0.12	-1.58 ± 0.13
GUAGAGCAAUAUUACGUCGA	-3.08 ± 0.17	-0.919 ± 0.2
GUAGAGCAAUAUUACGUGGU	-3.09 ± 0.28	-3.52 ± 0.3
GUAGAGCAAUAUUACGUGUA	-2.77 ± 0.2	-2.53 ± 0.28
